{"source": "patent CN116836273A", "about": "(DONGGUAN PENGZHI BIOTECHNOLOGY CO LTD, dated 2023)", "binders": {"B1": {"name": "Anti-SAA 9G5mut1 (antibody, mouse IgG2a, kappa)", "heavy": "EVHLQQSGAELVTPGASVKLSCTASGFNIKDTYMHWVKQRPEQGLEWIGRIDPANGNTKYDPKFQGKATMTADTSSNTAYLQLSSLTSEDTAVYYCARGGNYDWGQGTTLSVSSAKTTAPSVYPLAPVCGDTTGSSVTLGCLVKGYFPEPVTLTWNSGSLSSGVHTFPAVLQSDLYTLSSSVTVTSSTWPSQSITCNVAHPASSTKVDKKIEPRGPTIKPCPPCKCPAPNLLGGPSVFIFPPKIKDVLMISLSPIVTCVVVDVSEDDPDVQISWFVNNVEVHTAQTQTHREDYNSTLRVVSALPIQHQDWMSGKEFKCKVNNKDLPAPIERTISKPKGSVRAPQVYVLPPPEEEMTKKQVTLTCMVTDFMPEDIYVEWTNNGKTELNYKNTEPVLDSDGSYFMYSKLRVEKKNWVERNSYSCSVVHEGLHNHHTTKSFSRTPGK", "light": "DIVLTQSPASLAVSLGQRATISCKASQSVDYDGYSYLNWYQQKPGQPPKLLISAASNLESGIPARFSGSGSGTDFTLNIHPVEEEDAATYYCQQSNEDPYTFGGGTKLQIKRADAAPTVSIFPPSSEQLTSGGASVVCFLNNFYPKDINVKWKIDGSERQNGVLNSWTDQDSKDSTYSMSSTLTLTKDEYERHNSYTCEATHKTSTSPIVKSFNRNEC", "notes": "Recombinant monoclonal antibody made in CHO cells, a mutant of Anti-SAA 9G5"}, "B2": {"name": "Anti-SAA 9G5mut2 (antibody, mouse IgG2a, kappa)", "heavy": "B1 heavy", "light": "B1 light with I21L", "notes": "as for B1"}, "B3": {"name": "Anti-SAA 4B3mut1 (antibody, mouse IgG1, kappa, V domains shown)", "VH": "QVQLQQSGAELVKPGASVKLSCKTSGYTFTNKYIYWLKQRPGQGLEWIGEIDPSNGATKFNEKFTNKATLTVDRSSTTAYVELSSLTSEDSAVYYCARGAYWGHGTLVTVSA", "VL": "not shown", "notes": "Recombinant monoclonal antibody made in CHO cells, a mutant of Anti-SAA 4B3"}}, "note": "Changes are numbered by the printed parent chain.", "data": [{"target": "T1, 血清淀粉样蛋白A (Serum amyloid A, SAA) (UniProt P0DJI8 19-122, limits assumed)", "T1 construct": "Bought antigen", "T1 sequence (looked up)": "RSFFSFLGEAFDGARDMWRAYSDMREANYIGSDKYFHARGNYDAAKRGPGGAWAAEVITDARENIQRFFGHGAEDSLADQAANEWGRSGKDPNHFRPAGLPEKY", "test": "indirect ELISA, SAA coated at 2 ug/ml, antibody at 60 ng/ml", "values": [{"binder": "B1", "OD": "2.26 OD450 (ref. 630 nm)"}, {"binder": "B2", "OD": "2.31 OD450 (ref. 630 nm)"}, {"binder": "B3", "OD": "2.21 OD450 (ref. 630 nm)"}]}, {"target": "T1, 血清淀粉样蛋白A (Serum amyloid A, SAA)", "test": "indirect ELISA, SAA coated at 2 ug/ml, antibody at 15 ng/ml", "values": [{"binder": "B1", "OD": "1.23 OD450 (ref. 630 nm)"}, {"binder": "B2", "OD": "1.3 OD450 (ref. 630 nm)"}, {"binder": "B3", "OD": "1.13 OD450 (ref. 630 nm)"}]}, {"target": "T1, 血清淀粉样蛋白A (Serum amyloid A, SAA)", "test": "indirect ELISA, SAA coated at 2 ug/ml, antibody at 3.75 ng/ml", "values": [{"binder": "B1", "OD": "0.474 OD450 (ref. 630 nm)"}, {"binder": "B2", "OD": "0.501 OD450 (ref. 630 nm)"}, {"binder": "B3", "OD": "0.386 OD450 (ref. 630 nm)"}]}, {"target": "T1, 血清淀粉样蛋白A (Serum amyloid A, SAA)", "test": "indirect ELISA, SAA coated at 2 ug/ml, antibody at 30 ng/ml", "values": [{"binder": "B1", "OD": "1.95 OD450 (ref. 630 nm)"}, {"binder": "B2", "OD": "2.01 OD450 (ref. 630 nm)"}, {"binder": "B3", "OD": "1.51 OD450 (ref. 630 nm)"}]}, {"target": "T1, 血清淀粉样蛋白A (Serum amyloid A, SAA)", "test": "indirect ELISA, SAA coated at 2 ug/ml, antibody at 7.5 ng/ml", "values": [{"binder": "B1", "OD": "0.767 OD450 (ref. 630 nm)"}, {"binder": "B2", "OD": "0.801 OD450 (ref. 630 nm)"}, {"binder": "B3", "OD": "0.635 OD450 (ref. 630 nm)"}]}, {"target": "T1, 血清淀粉样蛋白A (Serum amyloid A, SAA)", "test": "BLI, antibody captured on AMC sensor, SAA in solution", "units": {"Kd": "nM", "koff": "s⁻¹", "kon": "M⁻¹ s⁻¹"}, "values": [{"binder": "B1", "Kd": 0.906, "koff": "6.67e-05", "kon": 73600}, {"binder": "B2", "Kd": 0.875, "koff": "6.52e-05", "kon": 74500}, {"binder": "B3", "Kd": 0.897, "koff": "6.75e-05", "kon": 75200}]}, {"target": "T1, 血清淀粉样蛋白A (Serum amyloid A, SAA)", "test": "indirect ELISA, SAA coated at 2 ug/ml, antibody at 0 ng/ml (blank)", "values": [{"binder": "B1", "OD": "0.011 OD450 (ref. 630 nm)"}, {"binder": "B2", "OD": "0.011 OD450 (ref. 630 nm)"}, {"binder": "B3", "OD": "0.007 OD450 (ref. 630 nm)"}]}]}
